The record followed here is publication doi:10.1101/2022.03.18.484870 (bioRxiv, 2022).

To fix the notation:
B2: His-mSTIC2 (recombinant mature Arabidopsis thaliana STIC2, aa 49-182) (natural protein)
chain: VNGLFGGGNKDNNSEDGQSKAGIFGNMQNMYETVKKAQMVVQVEAVRVQKELAAAEFDGYCAGELVKVTLSGNQQPIRTDITEAAMELGSEKLSQLVTEAYKDAHAKSVVAMKERMSDLAQSLGMPPGLSEGMK

The target in experiment [1] is B2. In words: peptide or protein array.
The target of experiment [2] is B2. The experiment can be described thus: ITC. (In general: In ITC the heat of successive injections is recorded.)
In experiment [3] the target is T1, Alb4C-His (recombinant His-tagged C-terminus of Alb4, aa 334-499) (UniProt Q9FYL3 334-499).
T1 sequence: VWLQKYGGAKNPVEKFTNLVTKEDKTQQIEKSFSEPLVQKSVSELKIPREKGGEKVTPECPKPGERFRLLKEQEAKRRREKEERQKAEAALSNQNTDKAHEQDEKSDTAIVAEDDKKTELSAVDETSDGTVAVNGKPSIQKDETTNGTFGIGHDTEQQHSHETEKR
In words: ITC.

As to GERFRQLKEQEKRSK [Alb3 15mer peptide spot (aa 386-400)], the binding result in experiment [1] is reported as “binds”.

B1: Alb3C-His (recombinant His-tagged C-terminus of Alb3, aa 350-462) (domain or fragment)
chain: VYLRKLGGAKPNMDENASKIISAGRAKRSIAQPDDAGERFRQLKEQEKRSKKNKAVAKDTVELVEESQSESEEGSDDEEEEAREGALASSTTSKPLPEVGQRRSKRSKRKRTV
What is called Kd is the concentration at which binding is half-saturated. Take B1: the Kd in experiment [2] came out at 136 µM.

For the molecule PKPGERFRLLKEQEA [Alb4 15mer peptide spot (aa 394-408)], the binding result in experiment [1] was “binds”.

With B2, the Kd in experiment [3] worked out at 16.6 µM.
